“Also recorded” adds a separate entry of the source.
What was measured:
CTLL-2 cells [1] = conditions: 100 U/ml IL-2 every 48 hours; cell count every 24 hours
Description: Cells were cultured in media containing the indicated concentration of (a) theophylline and (b) tetracycline.
In the experiment shown in FIG. 19, 100 U/ml of IL-2 was fed to all cultures every 48 hours, and cell count was obtained every 24 hours by flow cytometry.

JAK-STAT pathway = assay: Western blot analysis of phosphorylated STAT5 levels; assay type: cell-based, mouse; conditions: CffLuc cell line lacking the ribozyme switch system; 500 μM theophylline
Description: Additional assays on a clonal cell line harboring three copies of L2bulge9 (clone 1264-48) were performed to verify the mechanism of growth regulation and examine the dynamic behavior of the regulatory system to variations in theophylline availability. Cell cultures were grown for one week in the presence of 500 μM theophylline and continued for a second week in the absence of theophylline. Theophylline was reintroduced for another four days at the end of the study. […] CD19 levels returned to basal levels within 48 hours of theophylline removal from the culture. The theophylline-responsive increase in CD19 expression was repeated upon reintroduction of theophylline to culture media. IL-15 expression patterns were verified at the transcript level through quantitative RT-PCR (Example 21, FIG. 8). […]
Lysate samples were thawed on ice and a standard Bradford assay using Protein Assay Dye (Bio-Rad) was performed with a BSA standard to determine protein concentrations. […] Membranes stained for […] and p-STAT5 were washed 4 times with 100 ml TTBS and once with 100 ml TBS before fluorescent images were acquired and quantified with the Odyssey Infrared Imaging System (Li-Cor). Integrated band intensity was calculated with the Odyssey system using blank gel areas surrounding each band for background subtraction. […]

primary human TCM cells [2] = assay: TCM cell apoptosis time-course study (annexin V / SYTOX AAD / CD19 staining); assay type: cell-based; conditions: 500 μM theophylline, five days, compared to the inactive ribozyme control
Description: (§1) Since short production timeline and streamlined processing may be important in clinical applications, characterization studies of TCM cells were performed on bulk transduced, unsorted populations to examine the robustness of the regulatory system in the scenario in which no population refinement was performed. Transduced cells were cultured in the presence and absence of 500 μM theophylline for five days, with daily monitoring of CD19 levels and cell viability by staining with CD19 antibody, annexin V, and SYTOX AAD dead cell stain. […] TCM cells stably expressing the cd19-t2a-il15-L2bulge9(3×) construct were cultured in the presence and absence of 500 μM theophylline. […] Values reported represent mean±s.d. from triplicate samples.
On day 12 post stimulation, each cell line was washed twice with HBSS and used to seed six 25-ml cultures at 0.45×10^6 cells/ml. […] Fluorescence data were obtained using a Quanta Cell Lab Flow Cytometer with both a 488-nm laser and an UV arc lamp. Pacific Blue, PE, and SYTOX AAD were detected through 465/30-nm band pass, 575/30-nm band pass, and 610-nm long pass filters, respectively, Only SYTOX AAD-cells were included in data analyses. The population of live CD19+ cells was determined by gating for annexin V−/PE+ cells and the population of apoptotic CD19+ cells was determined by gating for annexin V+/PE+ cells.

CTLL-2 cells [3] = assay: Transient transfection in CTLL-2 cells, viability and fluorescence by flow cytometry; assay type: cell-based, mouse
primary human TCM cells [4] = assay: TCM cell CD19 expression time-course study; assay type: cell-based; conditions: 500 μM theophylline, five days; compared to the inactive ribozyme control; three copies of switch
Description: as §1
On day 12 post stimulation, each cell line was used to seed four 25-ml cultures at 0.2×10^6 cells/ml. 500 μM theophylline was added to 2 flasks of each cell line, and no IL-2 or IL-15 was fed to any flask. Two aliquots from each culture were sampled every 24 hours for staining with PE-conjugated CD19 antibody (Beckman Coulter; Fullerton, Calif.). Fluorescence data were obtained with a Quanta Cell Lab Flow Cytometer using a 488-nm laser and a 575/30-nm band-pass filter.

CTLL-2 cells [5] = assay: In vitro growth assay for stable CTLL-2 cell lines; assay type: cell-based, mouse; conditions: 500 μM theophylline, without exogenous IL-2
Description: Growth behavior of individual clones was characterized by culturing under various theophylline concentrations. […] In the experiment shown in FIG. 7, the cell lines were cultured at various theophylline concentrations, and cell growth was monitored by counting viable cells. Clones indicated as 1261-xx stably expressed cd19-tk-il15-L2bulge9(1x). Clone 1264-xx stably expressed cd19-tk-il15-L2bulge9(3×). Growth behaviors differ from clone to clone, as would be expected from non-site-specific integration of the transgene into the host chromosomes. Theophylline-responsive increase in cell growth is evident in fifteen of the sixteen tested clones, and the growth elevation is statistically significant for the sample set (P=0.0150, 0.0011, 0.0013 for 100 μM, 250 μM, and 400 μM, respectively, by Whitney-Mann U test).
CffLuc-pIL15 clones were cultured under regular conditions (RPMI 1640 media supplemented with 100 U/ml IL-2 every 48 hours, 0.2 mg/ml zeocin, no theophylline), washed twice with HBSS, and split into 5 identical aliquots in 6-well plates at approximately 0.01×10^6 cells/ml (4 ml/well). […] Cell density was calculated by dividing the number of detected live cells by the volume analyzed on the flow cytometer. […]

T-cell proliferation = assay: In vivo T-cell proliferation study with biophotonic imaging of luciferase signal flux; design: species or system NOD/scid-IL2(ko) mice
Description: To verify in vivo functionality of the T-cell proliferation regulatory system, we examined several clonal cell lines for theophylline-dependent growth in mice over time. Select clones were encased in a hydrogel matrix that contained either 0 μM or 500 μM theophylline and injected into the flanks of NOD/SCID-γc^−/− mice. […] Flux measurements over a 9-day period indicate an average of 40% increase in the growth rate of clone 1264-48 in the presence of […] (n1=4, n2=6, P=0.038 by Mann-Whitney U test).
Cells were harvested by centrifugation at 1200 rpm at 4° C. for 10 min, washed twice with PBS, resuspended in PBS at a concentration of 2×10^6 cells/ml, and split into two 50 μl aliquots. […] In vivo growth of the injected cells was monitored by biophotonic imaging. […]
Animals received intraperitoneal (i.p.) injections of 4.29 mg per mouse of freshly prepared luciferin substrate (Caliper Life Sciences; Hopkinton, Mass.) suspended in 150 μl of PBS. […] Luciferase activity was analyzed through Living Image Software 3.1 from Xenogen to quantify tumor region flux (photons per second).
Statistical analysis was performed on growth rate data using the Mann-Whitney U test to calculate two-tailed P values. The doubling time of injected cells was calculated based on the total luciferase signal flux data collected over the course of each in vivo study. […]

CN(C)[C@@H]1C(O)=C(C(N)=O)C(=O)[C@@]2(O)C(O)=C3C(=O)c4c(O)cccc4[C@@](C)(O)[C@H]3C[C@@H]12 [tetracycline]
toxicity to CTLL-2 cells (CTLL-2 cells [1]): some toxicity

Cn1c(=O)c2[nH]cnc2n(C)c1=O [theophylline]
nonspecific activation of JAK-STAT pathway (JAK-STAT pathway): did not nonspecifically activate the JAK-STAT pathway | toxicity to CTLL-2 cells (CTLL-2 cells [1]): some toxicity

B1: L2bulge9: theophylline-responsive ribozyme switch, SEQ ID NO: 28 (nucleic acid)
chain: CTCGAGGCGATCGCAAACAAACAAAGCTGTCACCGGATGTGCTTTCCGGTCTGATGAGTCCGTTGTCCAATACCAGCATCGTCTTGATGCCCTTGGCAGTGGATGGGGACGGAGGACGAAACAGCAAAAAGAAAAATAAAAATTTTTTTTTTAATTAATCTTGGGCCC
modifications: L2bulge9
reduction in the apoptotic cell population (primary human TCM cells [2]; apoptotic CD19+): up to 54% | increase in the live cell population (primary human TCM cells [2]; live CD19+): up to 24% | switch control over cell viability and proliferation (CTLL-2 cells [3]; cd19-tk-t2a-il15 transgene, theophylline): ON switch control over cell viability and proliferation | basal knockdown (viability) (CTLL-2 cells [3]; three and four copies of switch, egfp-t2a-il2, viability comparable to No IL-2 Control and sTRSV Ribozyme): Stringent knockdown | increase in CD19 expression levels (primary human TCM cells [4]): up to 15%

B2: inactive ribozyme: inactive, scrambled hammerhead ribozyme lacking an aptamer, SEQ ID NO: 30; cells expressing it serve as positive control (nucleic acid)
chain: CTCGAGGCGATCGCAAACAAACAAAGCTGTCACCGGATGTGCTTTCCGGTACGTGAGGTCCGTGAGGACAGAACAGCAAAAAGAAAAATAAAAATTTTTTTTTTAATTAATCTTGGGCCC
growth rate in the presence of theophylline (CTLL-2 cells [5]): decreased growth rate | change in in vivo growth rate in response to theophylline addition (T-cell proliferation; 500 μM theophylline vs none, 9-day period): did not show statistically significant changes; also recorded: no statistically significant difference | in vivo T-cell proliferation (T-cell proliferation; regardless of theophylline availability (0 or 500 μM), 14-day study): Uncontrolled T-cell proliferation

B3: L2bulge18tc: tetracycline-responsive ribozyme switch, SEQ ID NO: 29 (nucleic acid)
chain: CTCGAGGCGATCGCAAACAAACAAAGCTGTCACCGGATGTGCTTTCCGGTCTGATGAGTCCGTTGTCCAAAACATACCAGATTTCGATCTGGAGAGGTGAAGAATTCGACCACCTGGACGAGGACGGAGGACGAAACAGCAAAAAGAAAAATAAAAATTAATTAATCTTGGGCCC
modifications: L2bulge18tc
switch activity (fluorescence) (CTLL-2 cells [3]; tetracycline input, single- and multiple-copy switch systems): tetracycline-responsive ON switch activity
